Results taken from the supplement of paper PMC10567573.

B1: CROP (parent)
chain: VFGRGDNISDVSKFLEDDKWMEE
B2: C8orf76 (parent)
chain: KLAEAYLNLGPALSAALASSQKQH

Variants of: B1
Test: protein stability index of a GFP-peptide fusion (GPS, HEK-293T) (PSI 1-6); higher = more stable
Settings: c terminus: native
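Note: lentivirally expressed fusions sorted by FACS into six bins by GFP to DsRed ratio, PSI derived from sequencing read proportions per bin multiplied by bin number.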

Protein stability index: each site, then its substitutions
K19: L 1.89 | A 1.27 | Y 2.22 | R 2.5 | C 1.62 | I 2.28 | F 3.11 | H 1.91 | S 3.53 | W 1.75 | N 2.35 | G 1.95 | T 1.92 | M 1.21 | P 3.01 | D 2.63 | E 3.41 | V 2.27
S12: N 2 | R 1.92 | T 2.67 | G 1.41 | Y 1.74 | H 2.31 | I 2.32 | K 2.2 | Q 2.19 | C 1.73 | E 2.56 | A 1.4 | P 1.61 | D 2 | V 1.86 | F 2.33
E22: N 4.31 | I 3.81 | Y 3.73 | S 4.51 | K 4.73 | V 4.25 | Q 3.96 | D 4.23 | H 4.54 | C 4.69 | A 4.23 | L 4.07 | W 3.33 | F 3.47 | T 4.94 | P 4.33 | M 4.28 | R 3.32
D17: K 2.83 | R 2.25 | F 3.45 | L 1.29 | H 1.34 | Q 2 | T 2.04 | N 2.26 | S 1.52 | E 2.41 | V 1 | I 3.52 | Y 2.73 | A 2.29
F14: S 4.16 | W 1.96 | V 3.01 | E 4.92 | I 3.83 | P 4.07 | T 4.42 | R 3.29 | Y 2.03 | K 4.08 | A 4.31 | M 2.42 | H 4.16 | D 3.96 | L 2.43 | N 3.54 | C 3.8 | G 2.58 | Q 3.34
E23: D 5 | K 4.76 | S 4.6 | M 4.68 | Q 4.37 | C 4.1 | T 4.08 | Y 3.76 | L 3.54 | R 4.6 | F 3.61 | V 4.08 | P 3.67 | I 4.38 | H 4.53 | N 4.41 | A 4.36
E16: V 2.59 | P 2.12 | A 2.44 | I 1.65 | M 1.1 | Q 1.95 | T 1.66 | H 1.79 | G 2.4 | L 2.72 | C 1.46 | K 1.97 | N 3.11 | S 2.03 | F 2.42
K13: M 2.69 | G 2.02 | R 1.89 | D 2.83 | H 1.71 | N 1.91 | I 2.69 | S 2.65 | C 1.74 | P 1.14 | A 2.29 | F 2.04 | V 1.54 | T 1.72 | E 2.41
W20: K 3.78 | R 3.94 | S 4.28 | T 4.17 | Y 3.39 | I 3.97 | D 4.04 | F 4.18 | V 3.81 | L 2.54 | Q 3.4 | G 3.92 | A 4.2 | E 4.25 | N 4.72 | C 4.08 | H 4.34 | M 3.12
M21: W 1.97 | Q 2.94 | P 1.38 | F 2.28 | A 1.86 | C 3.53 | I 1.27 | G 4.04 | S 2.52 | Y 2.28 | E 4 | T 2.51 | V 1.87 | H 2.25 | N 1.43 | D 4.49
D18: F 1.66 | L 1.97 | W 2.04 | G 2.06 | S 1.31 | A 1.3 | K 2.69 | C 1.47 | Q 2.98 | T 1.78 | N 2.44 | H 1.49 | P 3.66 | V 1.77
V11: W 2.43 | T 1.49 | Y 1.38 | S 2.71
L15: G 2.8 | Y 2.21 | V 1.94 | K 3.01 | W 2.1 | P 2.81 | M 2.06 | T 3.47 | R 2.91 | I 1.93 | C 2.64 | S 2.28 | E 3.77 | D 1.85 | Q 3.7 | F 1.06 | H 3.35 | N 3.32 | A 3.09

Variants of: B2
Test: as above
Settings: c terminus: a fixed tail appended

Protein stability index of substitutions, site by site:
A3: Q 1.72 | Y 3.71 | C 3.15 | L 3.56 | T 1.52 | W 3.22 | D 3.08 | S 1.82 | K 1.93 | H 2.29 | V 3.08 | G 2.22 | F 3.79 | P 2.48 | I 2.07 | N 2.12 | R 2.24 | E 1.85 | M 1.43
E4: Y 2.55 | F 1.94 | I 2.97 | M 4.83 | V 1.39 | R 1.6 | K 1.43 | Q 2.63 | D 2.2 | A 1.83 | W 3.01 | C 1.57 | T 3.2 | H 3.03 | S 1.31 | N 2.35 | G 2.43 | P 2.2
K1: D 2.06 | C 4.61 | T 2.78 | H 1.97 | Q 2.44 | P 1.19 | S 2.08 | I 2.14 | W 3.61 | V 2.25 | N 3.67 | L 5.14 | E 2.64 | A 2.64 | Y 2.63
A5: C 4.48 | F 3.28 | P 2.76 | K 1.82 | L 4.98 | S 1.24 | W 1.58 | V 1.89 | N 2.07 | Q 2.33 | H 2.04 | E 2.96 | D 2.44 | M 3.68 | G 2.03 | T 2.93 | Y 4.03 | R 2.27
L2: F 1.11 | A 2.15 | N 2.61 | G 2.36 | T 2.8 | P 3.15 | H 2.66 | M 1.68 | R 2.38 | Q 2.57 | V 1.33 | S 3.07 | E 3.62 | I 2.6 | D 3.38 | Y 1.97 | C 2.03 | W 2.89 | K 3.38
N8: M 2.15 | G 2.5 | L 2.33 | H 2.16 | K 1.33 | F 2.74 | C 3.63 | A 4.23 | E 2.42 | D 2.07
L7: K 1.62 | F 2.53 | V 3.1 | E 2.65 | D 2.23 | A 1.6 | C 2.36 | M 1.53 | Q 1.54 | P 2.23 | N 1.94 | G 1.67 | Y 2.07 | S 2.21 | T 1.7 | I 2.59 | H 1.94
Y6: D 3.94 | N 3.58 | H 2.3 | Q 2.73 | A 1.54 | E 3.65 | V 3.81 | P 3.59 | S 3.04 | T 1.85 | C 2.32 | K 3.18 | R 2.98 | I 2.39 | W 2.08
